# Columns and labels:
# [1] = target: Fluorescein-labeled variant of BtuF (BtuF_(fluo)) (Escherichia coli) (UniProt P37028); assay: other fluorescence titration; equilibrium competition in solution: 5 nM BtuF_(fluo), Cbl 0.3 nM to 10 μM at a constant nanobody concentration (5 μM Nb14; 1 μM Nb7, Nb15, Nb17; 100 nM Nb9, Nb10); 50 mM Tris-HCl pH 7.5, 200 mM NaCl, 0.001% Tween 20, 23 °C; Ki fitted with Dynafit with Kd of Cbl 8.1 nM as input
# [2] = target: T1, BtuF, periplasmic substrate-binding protein of the Escherichia coli vitamin B12 transporter BtuCD-F, tag-less (Escherichia coli (K12 sequence), UniProt P37028); assay: pull-down; His-tagged nanobodies immobilized on Ni-NTA, 1.5 molar excess of tagless BtuF, 1.5 hours at 4 °C; wash 50 mM Tris-HCl pH 7.5, 250 mM NaCl, 10% glycerol, 20 mM imidazole; elution 500 mM imidazole; SDS-PAGE; no Cbl; details: both partners purified
# T1 construct: the assays name the protein tag-less; also called tag-less BtuF; tagless BtuF; source: prepared as described previously [6,18], purified; not shown: His-tag (3C cleavable), C-terminal, cleaved
# [3] = target: Fluorescein-labeled variant of BtuF (BtuF_(fluo)) (Escherichia coli) (UniProt P37028); assay: fluorescence kinetics of nanobody displacement by Cbl; 10 nM BtuF_(fluo) equilibrated with 10 nM nanobody, then 1, 5 or 10 μM Cbl; slow phase of fluorescence decrease at 520 nm gives koff; kon calculated as koff/Ki; 50 mM Tris-HCl pH 7.5, 200 mM NaCl, 0.001% Tween 20, 23 °C
Binder,Ki [1],binding result [2],koff [3],kon [3],occupancy of BtuF (fluo) with nanobody (10 nM each) [3]
"Nanobody Nb7 (VHH, Alpaca nanobody selected by phage display against BtuF; source: E. coli WK6, periplasmic extract, purified (IMAC, PD10 desalting)) VHH: QGQLVESGGGLVQPGGSLRLSCVASGFDFSNYTMSWVRQAPGKGLEWVSDISSGGGSTYYADSVKGRFTISRDNAKNTVYLQMNTLKPEDTAVYLCTELGVAPPGQGTRVTVSS",24 nM,binds,0.0019 s⁻¹,79000 M⁻¹ s⁻¹,30%
"Nanobody Nb15 (VHH, Alpaca nanobody selected by phage display against BtuF; source: E. coli WK6, periplasmic extract, purified (IMAC, PD10 desalting)) VHH: QVQLVESGGGLVQPGGSLRLSCTASEATLDDYAIGWFRQAPGKEREGVSCIGSSGDVTHYADSVKGRFTISRDNAKNTGYLQLNNLRPEDTAVYYCAAAHRILGGCLVIHSSDYTSSSKGTRVTVSS",79 nM,binds,,,
"Nanobody Nb17 (VHH, Alpaca nanobody selected by phage display against BtuF; source: E. coli WK6, periplasmic extract, purified (IMAC, PD10 desalting)) VHH: QRQLVESGGGLVQAGGSLRLSCAASGRTFSSYVMGWFRQAPGKEREAVASISWSGGSTYYADSVKGRFTISRDNAKNTVYLQMNSLKPEDTAVYYCAADHRTYYTGTYSPDYWGKGTPVTVSS",54 nM,binds,0.0025 s⁻¹,46000 M⁻¹ s⁻¹,14%
Nanobody Nb14 (VHH) VHH: QLQLVESGGGLVQPGGSLRLSCAASGFTFSSVAMSWVRQAPGKGLEWVSDINSVGSTYYADSVKGRFTISRDNAKNTVYLQMNSLKPEDTAVYYCVPLGERPEIHGGKGTPVTVSS,770 nM,,,,
Nanobody Nb10 (VHH) VHH: QLQLVESGGGLVQPGGSLRLSCAASGFTLDYYAIGWFRQAPGKEREGVSCISSSGGSTNYADSVKGRFTISRDNAKNTVYLQMNSLKPEDTAVYYCAADYAGRGFCAGLYDYWSQGTPVTVSS,6 nM,,0.0071 s⁻¹,1.2e+06 M⁻¹ s⁻¹,53%
"Nanobody Nb9 (VHH, Alpaca nanobody selected by phage display against BtuF; additional disulfide bond between C72 (CDR2) and C128 (CDR3); source: E. coli WK6, periplasmic extract, purified (IMAC, PD10 desalting)) VHH: QMQLVESGGGLVQPGGSLRLSCAAPESTLDDYAIGWFRQAPGKEREGVSCIGSSGDSTNYADSVKGRFTVSRDNAKNTVYLQMNDLRPEDTAVYYCAAAHRIFGGCLVIHSSGYVSWGQGTPVTVSS",,binds,,,

# — PMC5662663 (Scientific Reports, 2017)
